Source: publication PMC12350170, “Structural basis for the synergistic assembly of the snRNA export complex” (Nature Structural & Molecular Biology, 2025)

B1: MBP-PHAX103–196 (wild type) [human] / Human nuclear cap-binding complex (CBC): CBP80ΔNLS with CBP20 [human] (parent)
chain 1: SQKPPVAGGKKINNIWGAVLQEQNQDAVATELGILGMEGTIDRSRQSETYNYLLAKKLRKESQEHTKDLDKELDEYMHGGKKMGSKEEENGQGH
chain 2: KTSDANETEDHLESLICKVGEKSACSLESNLEGLAGVLEADLPNYKSKILRLLCTVARLLPEKLTIYTTLVGLLNARNYNFGGEFVEAMIRQLKESLKANNYNEAVYLVRFLSDLVNCHVIAAPSMVAMFENFVSVTQEEDVPQVRRDWYVYAFLSSLPWVGKELYEKKDAEMDRIFANTESYLKRRQKTHVPMLQVWTADKPHPQEEYLDCLWAQIQKLKKDRWQERHILRPYLAFDSILCEALQHNLPPFTPPPHTEDSVYPMPRVIFRMFDYTDDPEGPVMPGSHSVERFVIEENLHCIIKSHWKERKTCAAQLVSYPGKNKIPLNYHIVEVIFAELFQLPAPPHIDVMYTTLLIELCKLQPGSLPQVLAQATEMLYMRLDTMNTTCVDRFINWFSHHLSNFQFRWSWEDWSDCLSQDPESPKPKFVREVLEKCMRLSYHQRILDIVPPTFSALCPANPTCIYKYGDESSNSLPGHSVALCLAVAFKSKATNDEIFSILKDVPNPNQDDDDDEGFSFNPLKIEVFVQTLLHLAAKSFSHSFSALAKFHEVFKTLAESDEGKLHVLRVMFEVWRNHPQMIAVLVDKMIRTQIVDCAAVANWIFSSELSRDFTRLFVWEILHSTIRKMNKHVLKIQKELEEAKEKLARQHKRRSDDDDRSSDRKDGVLEEQIERLQEKVESAQSEQKNLFLVIFQRFIMILTEHLVRCETDGTSVLTPWYKNCIERLQQIFLQHHQIIQQYMVTLENLLFTAELDPHILAVFQQFCALQA
chain 3: MSGGLLKALRSDSYVELSQYRDQHFRGDNEEQEKLLKKSCTLYVGNLSFYTTEEQIYELFSKSGDIKKIIMGLDKMKKTACGFCFVEYYSRADAENAMRYINGTRLDDRIIRTDWDAGFKEGRQYGRGRSGGQVRDEYRQDYDAGRGGYGKLAQNQ

Variants of: B1
Assay: ITC
Details: CBC pre-bound to the cap analog m7GpppG

Kd | Variant
1.97 µM | chain 1 SQKPPVAGGKKINNIWGAVLQEQNQDAVATELGILGMEGTIDRSEQSETENELLAKKLRKESQEHTKDLDKELDEYMHGGKKMGSKEEENGQGH

Same assay, conditions: CBC pre-bound to the cap analog m7GpppG (row 'CBC-m7GpppG + PHAX103–196 (R147E, Y152E, Y154E)')

Kd | Variant
1.97 µM | chain 1 SQKPPVAGGKKINNIWGAVLQEQNQDAVATELGILGMEGTIDRSEQSETENELLAKKLRKESQEHTKDLDKELDEYMHGGKKMGSKEEENGQGH
